This assay deals with CD19 on tumor cells (Raji, Raji-Luc, NALM6, Reh) (human) (UniProt P15391). The assay is described as follows: cell-based or functional assay.
Sequence of CD19 on tumor cells (Raji, Raji-Luc, NALM6, Reh) (human) (P15391 20-556): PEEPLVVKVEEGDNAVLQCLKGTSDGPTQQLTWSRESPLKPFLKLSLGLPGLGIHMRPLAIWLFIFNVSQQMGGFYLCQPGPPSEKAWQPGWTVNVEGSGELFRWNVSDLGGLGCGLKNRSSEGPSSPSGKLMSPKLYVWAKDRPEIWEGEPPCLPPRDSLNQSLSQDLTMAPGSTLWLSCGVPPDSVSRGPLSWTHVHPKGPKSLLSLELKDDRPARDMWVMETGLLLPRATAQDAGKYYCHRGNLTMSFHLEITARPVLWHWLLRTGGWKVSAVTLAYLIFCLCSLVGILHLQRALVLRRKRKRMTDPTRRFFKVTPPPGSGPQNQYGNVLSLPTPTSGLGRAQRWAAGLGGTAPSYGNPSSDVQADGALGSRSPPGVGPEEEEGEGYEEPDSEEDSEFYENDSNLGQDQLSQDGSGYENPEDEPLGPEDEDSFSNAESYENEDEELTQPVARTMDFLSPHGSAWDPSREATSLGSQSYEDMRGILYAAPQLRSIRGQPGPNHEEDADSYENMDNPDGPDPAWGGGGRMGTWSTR

With Blincyto (bispecific antibody), the EC50 of CIK-mediated killing of NALM6 cells came to 77.3 pM; the EC50 of CIK-mediated killing of Raji-LUC cells was 0.595 pM; the EC50 of CIK-mediated killing of Raji-LUC cells, second row turned out to be 5.65 pM; the EC50 of CIK-mediated killing of Reh cells amounted to 11.9 pM. Further, the EC50 of PBMC-mediated killing of Raji-LUC cells stood at 5.45 pM; the EC50 of PBMC-mediated killing of Raji-LUC cells, second row was determined as 21.2 pM; the EC50 of PBMC-mediated killing of Raji-LUC cells, third row was found to be 22.6 pM; the EC50 of activation of Jurkat T cells with NFAT RE reporter in the presence of Raji target cells is 2.71 nM.

Source of the values: patent publication US20210371526A1.
